The data set is described as follows: protease stability score; higher = more stable; yeast display proteolysis, trypsin and chymotrypsin.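 Note: log10 excess protease needed over predicted unfolded state with 0 meaning unfolded.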
Take “DERIKDTVDQMWSAVKNNDPDQMNENFDPNARIEVGDKEVHGRDTLKKWQDTQNKRSNKDMESVSVKVDGDKVDIEAESKFTNNGQPHTNKMTASARLENGRFKEVHIDSRK”: the protease stability score is -0.513.
For “DEEDDKEMEKAIRALLYGDPDKVKKLADPNVNIQYGDKEIQGREEVSKHVDNLRHESRMRVQTMDNDLSGDHAKFDVQYESNHNGKPDTRRVDINAKAHNGHVKHMQWNKDE”, the protease stability score was -0.25.
Consider “DEEYAHQLREFLEAWVSGDENRAKQLADPNARVNVGEERISGMDEFMKEVRKRKKEMRIEVKHIKIEVRPNKAKADVKFRVNFNGTPFDVNQKWQAHWHNGKLHSVTVNMDEDQKRFEKG”, for which the protease stability score came to 0.451.
The same measure for “DEKKTKELLKEAMKALHNGNEEKVKKLGGPDVEVHAFNYRNRGPEAMVEMARLAQRVGTEFQYREERFEGNRVKTVVEVTVGGDTVRYEVQATVEGGEVKRWEAHVDEKFIEHVEKS”: 0.174; for “DDKHKVEQLLRRADDALRTNDERKYIEMVDKDVRITVGDKQIHGKDEAVKFLRTLHNTYDHVQIRVESIENDGEKFKVIVQITAKHNGKETSHTLSFDAQRHNGQVRVKHASMG”: 1.21; for “DEEMNKRAKRLVDVLRTGDFREFLEMVDPNARVQIGDKSWHGMEDYVHDLKEKRDQIKMHYEVKHMTAHDGRAHLEIDAEANVNGQPLSFSFTLHLQFQNGRVTHAEYQLDEDRLRKLEQ”: 0.911.
The same measure for “DETEVAHRFLNQERRNWKTGNRQSFENMFRDNVRAQYGDKTVTGREDMKRWLDRILKEVDHVRIEIKDLKREPGRVSLDVVVVFEHNGHKDKKRYVIDAVASGDKMIIDQVQDK”: 0.165.
For “DERDRRVMEDFFRALEEGDPDTLRQNMDKDAKLVIGDKTYHGREEIATRIVQHIEHAHVRMRVDSIRAHNGRVEVNVTFMVNHNGRPRSDRMNVEAVIRNGKIKELHLVTEK” the value was -0.131; for “DEDKLTRVEDFLRLQEQNNEDELLKQMDPNATQRYGNKHVHGSSEVKRFLHRLHREMRIRVEMKSVEVHGDEVVMKADFSKTFNGRPETLTATVVFKVHNGRIQKIIFEERK”, 1.41.
Turning to “DEEEELRRAVKAIKQYMTGNEQEVSKMADPNVKIQVGEKRIHGREQLRQEVKRLHDTVDHIEVLSITHTGNSAQVDARVEVDGRVQRFVLRVVMHNGRITSIVVEVTDEDRFKNMVK”, the protease stability score is 1.2.
“DEHVEKRVDEWWKALRQNNPDEANKNMDPNAKLHIGDKTVHGREEAKRQIENRFKEMRFSYKVRHLTAENGEVEIEATFKVEHNGQPRSRSMRMSINVHNGRIVDIQVDIDPRDQQKFRK” yielded a protease stability score of 0.041.
“DEEKVKEIAKNFADAMRNGDPDQASKLLDPNAKIHVGEFNYKGREAANRMAKTMRDQFDHLDIKSIEVSGNSIKIEAQLHYNGQTIDIELFITVHNGHIESVTLHYRNEEDEEKLQS” showed a protease stability score of 1.08.
In the case of “DEDKLREVAEEMNKGDPQTLADNADKDARLRVGDREWHGREDVEKFNNQWRREVDHVDIERVTVSPNRVEAVYVVTVNGKRIHAKFEAKVHDGRIKEMTVSVTNPEQQKDLERQVD”, the protease stability score is -0.1.
“DETAVEIARDFLQAITNNNPQEAERLADPNVRWTVGDKSYSGMNEFSKIIKDLNDRSRFEYTDVKLDVTNGRARIELRMSRTVNGKPQSFDMVMNVVVHNGRIKHVHVHNKQ” registered a protease stability score of 1.4.
In the case of “DEKQDRDIQRVLHDNNPDHMKKLVDENAHAQVGNKTYHGREQVLTLIEHMVRTVDHMSIDKVEVKNGKADMDYHVNINGQSARVRVDVKFHNGRIKEIRIQATDKEVRDILDEAFD”, the protease stability score amounted to 1.23.
Regarding “DENLLDHMKRLFESGDWDDFSKNADKHVRVHIGEFNYRGREQARTVMNKLQKSADHVEIKRISVHNGQLQMDVTVVVNGETITVRIAAHVSNGRFVELRMSATDSKDKKALQKVQS”, the protease stability score worked out at 1.03.
The sequence “DPKKAFKVAEEAMKYFVKGNVDELKKILNPDGTARVADHETKGVEEIMKLLQRMKKHGVQVEVKEVRREGNQVEVHTVYHDGDETATLTVQYKAQNGKVDHIKVQYNERMKKIWEKG” yielded a protease stability score of 1.2.
For “DDQNLRSAVRRLVDGNEERAKDTLDENARVEVGEYNFHGREEAQKAFQTMQDRIDHINVKSYKYQGDKASVDMVVEFNGRSVKFVVVVRVHNGHLVNARVQFTDEHQHKRAKEMID” the value was -0.104; for “DDDVLRKVERLIEVENEGNEDEARELMDPNAEFQVGDKSVHGREEYASNMKKEQKELKIEIHHVTQSVHNGEADVHLTMRVNDNGRPKEQHYHATFEAHNGRIVYVKKQMRG”, -0.099.
On to “DKEEAQKVAEQMVKAIKNGNLDELADAGDDGVDYQVGDEKKRGREDIKRHVEKLQKAGVEMEVKEVRVEGNEVETKLTYKIGNTEVTVKVTVEVEGGKINRVEVRMSEEVEKTVRHG”, for which the protease stability score is -0.193.
“DESAIHDVTNLLHNIQTGNPDEVDKHMDKHVKLNVGDKQISGRHRVRKKVEREKKEIRIHITVYHMRSRPGRVKIDATRENEHNGTPHSHRVIVDVRYDNGKIVNFRVEDVK” showed a protease stability score of 0.366.
Sequence “DEQLNKHFVRLMQNNDFEELVRNADKDVRVRIGNKEYQGREEANTALKTFHKQVDKLTIRSYDYHNGSAKIDLEVRFNGQKFRFVVTARLHNGKMKSMRINFTNPEDQKQLDRDMS” displayed a protease stability score of 1.41.
“DEEAQKKVEEWERAIEHGNEQQARELADKDVRIEVGDQRVRGMEDIARTQVRKQREITRHVRRFDAHATGDKIRVELVFEVHHDGQPRHQKYELRMVMHNGRVHSVRVETRR” had a protease stability score of 0.412.
As to “DDHKAQRAVDIAKNWLTGNEEELQKQASEEVRFDYGDKTVHGMTEARTQAKRFHERMRADAKVHSFDVTGDKAVVNMVFEQEHNGRPTNRRYRVILDLHNGKVKEVQIDDDG”, the protease stability score is -0.069.
The same measure for “DDSREIEKFMTTVERALRRGDEHKLREMFPEDAHLEVGDKTYRGRENVVEANKEWANKFDHIHIRYDKLRVDNGKFDITITYVLKHNGRQETRRAKVVAHKTNGQVKMKSVFDT”: 0.482; for “DQRERQEHAEHFNRVLQTNDPDRIKKLFDPNAKLQIGDSTFTGREDIDDAAKELKEQADHITVDRVHVHGNKVTLRFVMNVDGKSADATVTMIVKNGRAKEVHFDPRLEEQIKK”: -0.407; for “DREKQSEISTMMQKGDPQHLVDLADENAHVEIGNKRVHGRNQIKEYADRFHERVDHYSVRSIEIEGDTVTVTAYFVVNGQNIEWTMQMQNHNGKVKRIRVRFTNEELEKQLDKALS”: 0.846.
For “DPTKALRLADTALRAFANGNSDQVKQHLKPDVRARVVDEETQGVDQIVKQLQHFVKVGVQRQVDEVRHEGNQVEAHTQYQVGDNQATMTVVYRAQNGKVDEIEVRYDERAKKIFEQG” the value was -0.115; for “DERERERQLRDIFRVIQRGDQDRWKEQADENARIHVGDTRVHGQEEARKWFKELVDRADHFSVKRIEVNGDDMILTFEVEFNGKRHTVTIDFNVQNGRIQNINVDPEAERRIRK”, 0.048; for “EEENQKLAKKFITAVNKGNPKELNENVDPNARLVIGDKTIHGRETLDRWAKKVKDDMRNHWHVTSLRVSNGDIKADVKVVINHNGKPDDFTLDMTMEVHNGKIKRMDARDSQ”, 0.157.
Take “DEENEDIFRKYLEDLKKGDPKKLKEQFDKDAEVKVGDDVLHGRRSIARTLHEERKEMRVEIEDVKVRAHNGQLEVRFQQTVDHNGRPKTVRARMEVKFHNGRIKHLSVDERE”: the protease stability score was -0.331.
“DEQDNEKARRIMDRGDPHELNRMADKDARVQVGDKTWHGRSQFEEFVKRFHDRVDHIEVKSVHVHGNEVRVDLVVVVNGHEARFIMVASVHNGHATSLSINVTDPRVEEVLRDIFD” showed a protease stability score of 0.014.
In the case of “DERDADEIAKVFVHNNPKDIERMVDEDVRIIIGDFEVQGREEARKYAEQLEKHIDHNHVRDYRVEGNKVTLDVNVVVNGRSLTFVVHITMHNGHVKEIRVQFTSPEDQKVFKEVVG”, the protease stability score came to 0.719.
